B1: Retinoic acid receptor RXR-alpha, residues 132 to 208; numbered along this chain, P19793 (parent)
chain: KHICAICGDRSSGKHYGVYSCEGCKGFFKRTVRKDLTYTCRDNKDCLIDKRQRNRCQYCRYQKCLAMGMKREAVQEE

Variants of: B1
Assay: abundance fitness (aPCA) (normalised: wild type 0, dead -1); higher = more abundant; growth selection in yeast, the domain comes from the species named
Details: Homo sapiens

Abundance fitness, by site and new letter:
L47: V -0.008 | W 0.005 | Y -0.03
I48: A -0.05 | C -0.035 | D -0.031 | E -0.162 | F -0.108 | G -0.007 | H 0.061 | K 0.094 | L 0.016 | M 0.03 | N 0.065 | P -0.007 | Q 0.21 | R -0.02 | S -0.04 | T 0 | V 0.051 | W 0.007 | Y -0.342
D49: A 0.009 | C -0.117 | E -0.005 | F -0.109 | G 0.07 | H -0.011 | I 0.069 | K 0.026 | L -0.102 | N 0.048 | P -0.018 | Q 0.036 | R -0.183 | S -0.037 | T -0.07 | V 0.036 | W 0.06 | Y -0.183
K50: A 0.037 | C -0.153 | D 0.019 | E -0.077 | F -0.008 | G 0.015 | H -0.029 | I -0.026 | M 0.043 | N 0.124 | P -0.029 | Q 0.047 | R -0.026 | S -0.108 | T -0.099 | V 0.052 | W -0.107 | Y -0.092
R51: A 0.007 | C -0.053 | D -0.073 | E -0.005 | G 0.015 | H -0.052 | I -0.001 | K 0.082 | L 0.022 | M -0.025 | N -0.071 | P 0.045 | Q -0.015 | S 0.017 | T 0.022 | V -0.035 | W -0.038
R53: A -0.008 | C -0.063 | D 0.002 | E 0.061 | F -0.044 | G -0.009 | H 0.015 | I 0.014 | L -0.041 | M -0.065 | N 0.03 | P 0.027 | Q -0.028 | S -0.076 | T 0.063 | W 0.006 | Y 0.007
N54: D -0.128 | H 0.117 | S -0.167 | Y -0.061
C56: S -0.293 | Y -0.431
Q57: C -0.037 | D 0.05 | E -0.045 | G 0.03 | I -0.167 | K -0.113 | L -0.016 | N -0.052 | P 0.032 | R 0.003 | T -0.065 | V -0.04 | W -0.026 | Y -0.065
Y58: A -0.007 | C -0.066 | D 0.045 | E 0.043 | F -0.02 | G -0.028 | H 0.09 | I -0.551 | K 0.024 | M -0.062 | N -0.087 | P -0.294 | R -0.032 | S 0 | T -0.328 | V -0.311
C59: A -0.748 | D -0.647 | E -0.59 | F -1.05 | G -0.861 | H -0.066 | I -0.977 | K -1.05 | L -0.911 | M -1.08 | N -1.13 | P -0.753 | R -0.955 | S -0.657 | T -0.651 | V -0.915 | W -0.427 | Y -0.418
Y61: C -0.06 | H -0.08 | N 0.101
C64: Y -0.421
L65: A -0.038 | C 0.044 | D -0.133 | F -0.036 | G -0.148 | H -0.078 | I -0.132 | K -0.008 | M -0.058 | N 0.11 | Q 0.021 | R -0.111 | S -0.061 | T 0.057 | V 0.033 | W -0.108 | Y 0.015
A66: C -0.099 | D 0.031 | E 0.033 | F 0.015 | G 0.017 | H 0.045 | I -0.032 | K 0.045 | L 0.047 | M -0.042 | N -0.005 | P -0.713 | Q -0.031 | R -0.019 | S 0.015 | T 0.002 | V 0.029 | W -0.063 | Y -0.036
M67: A 0.009 | C -0.019 | E -0.016 | F -0.017 | G -0.023 | I 0.007 | K 0.007 | L 0.018 | N -0.006 | P -0.621 | Q -0.017 | R 0 | S 0.019 | V -0.009 | W -0.055 | Y -0.008
G68: C -0.136 | D -0.06 | E -0.112 | F -0.091 | H -0.103 | I -0.544 | K -0.079 | L -0.362 | M -0.26 | N -0.02 | Q -0.054 | R -0.238 | S -0.108 | T -0.357 | V -0.645 | W -0.302 | Y -0.227
M69: A -0.069 | C -0.09 | D -0.733 | E -0.322 | F 0.051 | G -0.159 | H -0.548 | I -0.275 | K -0.482 | L -0.036 | P -0.856 | Q -0.157 | R -0.875 | S -0.262 | T -0.343 | V -0.319 | W -0.007
K70: A -0.014 | D 0.006 | E -0.074 | F 0.043 | H 0.037 | I 0.035 | L 0.01 | M -0.034 | N 0.061 | P 0.021 | Q -0.01 | R -0.012 | S 0.002 | V 0.04 | W -0.005 | Y 0.037
R71: A 0.033 | C -0.001 | D 0.065 | E 0.006 | F 0.01 | G -0.004 | H -0.007 | I 0.028 | K 0.043 | L 0.033 | M -0.01 | N 0.015 | P 0.005 | Q 0.001 | S 0.003 | T 0.019 | V 0.021 | W -0.056 | Y 0.006
E72: A -0.022 | C -0.047 | D 0.047 | F -0.19 | G -0.096 | H -0.109 | I 0.046 | L -0.046 | M -0.07 | P -0.12 | Q -0.042 | R -0.017 | S 0.034 | T -0.026 | V 0.16 | W 0.041
A73: C 0.04 | D 0.048 | E -0.011 | F -0.01 | G -0.008 | I 0.05 | K -0.081 | L -0.027 | M 0.044 | N 0.015 | P 0.011 | Q -0.04 | R -0.037 | S 0.004 | T 0.009 | V -0.019 | W -0.007 | Y -0.056
V74: A -0.045 | C 0.017 | D -0.039 | E -0.018 | G -0.028 | H -0.021 | I -0.017 | K 0.056 | L -0.046 | M -0.025 | N -0.064 | P -0.002 | Q -0.007 | R -0.03 | S -0.059 | T 0 | W -0.074 | Y -0.039
Q75: A -0.049 | C 0.026 | D 0.022 | E 0.073 | F -0.039 | G -0.006 | H -0.049 | I -0.014 | K -0.047 | L -0.031 | M 0.043

From the Human Domainome abundance scans (Beltran et al. 2025)
